{
  "source": "paper PMC4916508",
  "about": "“Structural insights of a hormone sensitive lipase homologue Est22” (Scientific Reports, 2016)",
  "key": {"[1]": {"target": "Est22 S188A/D287A (bacterial, deep-sea sediment metagenomic library)", "assay": "SEC; gel filtration profiles of wild type and mutants, Superdex 200 16/600 (panel C); column of panel E not given"}, "[2]": {"target": "Est22 S188A/H317A (bacterial, deep-sea sediment metagenomic library)", "assay": "SEC; gel filtration profiles of wild type and mutants, Superdex 200 16/600 (panel C); column of panel E not given"}, "[3]": {"target": "Est22 S188A (bacterial, deep-sea sediment metagenomic library)", "assay": "SEC; gel filtration profiles of wild type and mutants, Superdex 200 16/600 (panel C); column of panel E not given"}, "[4]": {"target": "Est22 (wild type) (bacterial, deep-sea sediment metagenomic library)", "assay": "SEC; gel filtration profiles of wild type and mutants, Superdex 200 16/600 (panel C); column of panel E not given"}, "[5]": {"target": "Est22 (wild type) (bacterial, deep-sea sediment metagenomic library)", "assay": "SEC-MALS; 20 ul of 1 mg/ml Est22 on a wtc030s5 column (Wyatt), 20 mM Tris-HCl, 100 mM NaCl, pH 7.4"}, "[6]": {"target": "the molecule itself", "assay": "SEC; gel filtration profiles of wild type and mutants, Superdex 200 16/600 (panel C); column of panel E not given"}, "[7]": {"substrate": "CC(=O)Oc1ccc([N+](=O)[O-])cc1", "assay": "purified protein", "assay_type": "biochemical, uncultured bacterium", "conditions": "100 mM Tris-HCl, pH 7.5, 40 °C"}},
  "data": [
    {"molecule": "Est22 S188A/D287A (enzyme)", "values": [
      {"measurement": "stoichiometry N", "setting": "[1]", "result": 2}
    ]},
    {"molecule": "Est22 S188A/H317A (enzyme)", "values": [
      {"measurement": "stoichiometry N", "setting": "[2]", "result": 2}
    ]},
    {"molecule": "Est22 S188A (enzyme)", "values": [
      {"measurement": "stoichiometry N", "setting": "[3]", "result": 2}
    ]},
    {"molecule": "Est22 (wild type) (enzyme)", "values": [
      {"measurement": "stoichiometry N", "setting": "[4]", "result": 2},
      {"measurement": "stoichiometry N", "setting": "[5]", "result": 2}
    ]},
    {"molecule": "Est22 S170A (enzyme) MGSSHHHHHHHSSGLVPRGSHMTNKIAEDPRIDPRIKAIFSGMDLGGGGDVESREAMLEAASSEEATAVRDGLRVFLDACDNEEIAPSAGLKIEDYEFTSEPDGNIAKIQYIRPDSTDKLPCVYYIHGGGMQSLSCYYGNYRAWGKIIASNGVAVAMVEFRNALVPSALPEVAPYPAGLNDCVSGVKWVAAHADELGIDASRIIIAGESGGGNLTLAAGLRLKQEGSQDLIQGLYALCPYIAGSWPSEDSPSSTENNGILLDLHNNQGAMGYGIEAYEMRDPLAWPGFATEEDVSGLVPTFISVNECDPLRDEGINFYRLLLRAGVSAKCRQVMGTIHGTEIFPIACPDVSRDTAASIANFCKGG", "values": [
      {"measurement": "stoichiometry N", "setting": "[6]", "result": 2}
    ]},
    {"molecule": "Est22 (uncultured bacterium) (protein, full length 1-344 aa, N-terminal 6xHis tag (pET28b), E. coli Rosetta (DE3)) MTNKIAEDPRIDPRIKAIFSGMDLGGGGDVESREAMLEAASSEEATAVRDGLRVFLDACDNEEIAPSAGLKIEDYEFTSEPDGNIAKIQYIRPDSTDKLPCVYYIHGGGMQSLSCYYGNYRAWGKIIASNGVAVAMVEFRNALVPSALPEVAPYPAGLNDCVSGVKWVASHADELGIDASRIIIAGESGGGNLTLAAGLRLKQEGSQDLIQGLYALCPYIAGSWPSEDSPSSTENNGILLDLHNNQGAMGYGIEAYEMRDPLAWPGFATEEDVSGLVPTFISVNECDPLRDEGINFYRLLLRAGVSAKCRQVMGTIHGTEIFPIACPDVSRDTAASIANFCKGG", "values": [
      {"measurement": "Km", "setting": "[7]", "result": 489.9, "unit": "µM"},
      {"measurement": "kcat", "setting": "[7]", "result": 3160, "unit": "s⁻¹"}
    ]}
  ]
}
